Results as given in patent publication US8466107B2, “Fibrin-binding peptides and conjugates thereof” (Bracco Imaging SpA, priority 2006, dated 2013).
Numbered stars: 1 amine (or outer) side, 2 acyl side, 3 side chain; on linkers, the order of the positions; unused ones are H or OH. Bridge positions count the residues as written; N and C are the ends. Side chains are listed from the residue outwards. * marks the point of attachment. DSPE = distearoyl phosphatidylethanolamine, CCCCCCCCCCCCCCCCCC(=O)OC[C@H](COP(=O)(O)OCCN*)OC(=O)CCCCCCCCCCCCCCCCC; Glutaryl = O=C(CCCC(=O)[*:2])[*:1]; PG4 = not defined here

Legend:
[1] = system: neuroblastoma (Neuro-2a) tumor; assay: In vivo MRI test of fibrin imaging in neuroblastoma tumor mouse model; settings: mice with neuroblastoma tumor; 25 μmol/kg iv.; T1 weighted MRI at 2T, 4 h post injection
Excerpt: Three groups of 5 mice each, inoculated with 2·10^6 neuroblastoma cells with PBS, were formed and tested as follows: • Group a: Reference compound 2, • Group b: Chelate Complex 1 • Group c: ProHance® (see Protocol)
At day-10 post tumor cells inoculation, at least 4 mice per group with similar tumor size (5-10 mm in diameter) were selected for the in vivo MRI tests. After pre-contrast MRI acquisition (T1 and T2 high resolution 2D spin-echo and 3D gradient echo images), the test compounds were administered (25 μmol/kg iv.) and MRI was performed at 4 h and 24 h post injection. Maximum signal intensity was measured in the entire tumor area and in each post contrast image covering the whole tumor and the signal was compared to the pre-contrast images. At the end of MRI exams, all animals were sacrificed and the tumor, blood, liver, kidneys and femoral bone were removed and prepared for Gd assay by ICP-AES. […]
The mean signal intensity was measured within a region of interest (ROI) including the entire tumor, drawn by an operator on each MR image using dedicated software (MR Research Systems Ltd, Surrey UK). Signal intensity enhancement (Enh %) was determined as: Enh%=100*(SIx(t)−SI0)/SI0 […]

fibrin = biological target: T1, fibrin (Homo sapiens, UniProt P02671+P02675+P02679); assay: Dynamic binding test of targeted microvesicles on fibrin-coated coverslips in a parallel-plate flow chamber; settings: shear rate about 114 s^-1, 10 min, 50% human plasma
T1 sequence (P02671 36-629 limits assumed): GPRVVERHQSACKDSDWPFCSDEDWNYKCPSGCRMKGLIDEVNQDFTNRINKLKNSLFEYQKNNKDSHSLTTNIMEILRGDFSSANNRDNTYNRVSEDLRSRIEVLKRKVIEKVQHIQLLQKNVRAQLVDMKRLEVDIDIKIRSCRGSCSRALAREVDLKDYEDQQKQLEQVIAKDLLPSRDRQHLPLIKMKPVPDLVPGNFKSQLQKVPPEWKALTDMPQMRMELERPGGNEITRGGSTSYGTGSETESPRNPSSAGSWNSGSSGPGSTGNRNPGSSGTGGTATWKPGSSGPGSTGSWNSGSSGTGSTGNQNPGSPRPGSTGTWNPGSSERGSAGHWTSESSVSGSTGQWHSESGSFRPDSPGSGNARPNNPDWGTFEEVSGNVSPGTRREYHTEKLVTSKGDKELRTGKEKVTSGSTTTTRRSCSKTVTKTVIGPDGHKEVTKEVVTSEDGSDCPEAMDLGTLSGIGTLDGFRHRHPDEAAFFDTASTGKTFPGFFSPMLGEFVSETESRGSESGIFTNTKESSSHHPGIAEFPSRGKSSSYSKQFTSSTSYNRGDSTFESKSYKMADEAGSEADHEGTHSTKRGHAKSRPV
T1 sequence (P02675 45-491 limits assumed): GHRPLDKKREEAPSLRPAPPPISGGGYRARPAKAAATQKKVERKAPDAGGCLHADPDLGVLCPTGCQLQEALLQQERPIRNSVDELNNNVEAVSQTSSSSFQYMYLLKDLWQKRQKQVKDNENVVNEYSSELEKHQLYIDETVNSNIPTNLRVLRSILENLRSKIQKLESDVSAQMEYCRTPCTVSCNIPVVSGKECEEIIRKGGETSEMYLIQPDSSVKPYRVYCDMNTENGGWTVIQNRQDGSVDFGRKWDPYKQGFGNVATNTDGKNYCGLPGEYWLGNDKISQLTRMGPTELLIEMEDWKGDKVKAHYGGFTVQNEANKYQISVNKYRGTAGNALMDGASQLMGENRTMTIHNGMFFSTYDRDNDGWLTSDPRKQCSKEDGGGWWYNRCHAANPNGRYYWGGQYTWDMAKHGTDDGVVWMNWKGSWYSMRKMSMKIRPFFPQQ
T1 sequence (P02679 27-437 isoform P02679-2 limits assumed): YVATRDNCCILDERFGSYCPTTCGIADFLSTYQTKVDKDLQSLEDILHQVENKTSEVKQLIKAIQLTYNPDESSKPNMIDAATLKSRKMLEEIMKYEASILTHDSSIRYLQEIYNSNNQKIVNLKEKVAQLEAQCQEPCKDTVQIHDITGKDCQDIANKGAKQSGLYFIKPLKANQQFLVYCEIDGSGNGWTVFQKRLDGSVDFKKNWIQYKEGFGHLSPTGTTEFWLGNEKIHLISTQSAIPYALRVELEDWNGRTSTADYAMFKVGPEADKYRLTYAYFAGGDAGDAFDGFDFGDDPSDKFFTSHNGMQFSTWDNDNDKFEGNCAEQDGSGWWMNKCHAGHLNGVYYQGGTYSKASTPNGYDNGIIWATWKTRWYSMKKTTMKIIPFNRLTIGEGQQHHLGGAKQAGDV
Method: Glass coverslips (40 mm in diameter, Bioptechs Inc., Butler, Pa., USA) were coated with fibrin according the following methodology.
Five mL of a solution of BSA 1% w/v in PBS pH 7.4 were added into a 60 mm Petri Dish containing one coverslip, and incubated at 37° C. for 15 min. Then the coverslip was washed three times with 5 ml of Tween 80/PBS (0.1%, v:v). Twenty five μL of human thrombin solution at 5 U/mL were added per mL of human fibrinogen solution (0.5 mg/mL in 50 mM sodium phosphate, NaCl 280 mM, pH 7.4) and delicately mixed. Five mL of this solution were immediately distributed in each Petri dish. The coverslips were incubated for one hour at 37° C. and then dried overnight at 45° C.
Binding studies of targeted microvesicles were carried out using a parallel-plate flow chamber (FCS2, Bioptech Inc., Butler, Pa., USA) with a chamber gasket of 0.25 mm in thickness, with a customized adapter for upside-down chamber inversion. The coated coverslip was inserted as a plate of the flow chamber. Gas-filled Microvesicles (5×10^6 bubbles/mL in 50% human plasma in PBS) were drawn through the flow chamber using an adjustable infusion pump (Auto Syringe® AS50 Infusion Pump, Baxter, Deerfield, Ill., USA) with a 60 mL syringe (Terumo). The pump flow rate was adjusted to 1 mL/min to obtain the desired shear rate of about 114 s^−1. After 10 minutes, the flow was stopped and pictures were taken randomly on different positions on the coverslip (on surfaces of about 0.025 mm^2) using a 40× objective and a CCD monochrome camera (F-View II, Soft Imaging Systems, Germany) connected to an inverted Olympus IX 50 microscope. The number of microvesicles on each picture was determined, averaged with respect to the total number of pictures and the obtained value was then divided by ten (to obtain the “slope”, i.e. the average amount of bound microvesicles per minute).
For each preparation of Examples 17-20, the binding assay was repeated four times thus obtaining an average value of the slope. The slope represents the microvesicle binding rate on the target substrate. […] A higher slope indicates a better capacity of microvesicles to bind to the target under flow conditions.

[2] = microvesicles with DSPC/stearate envelope containing the lipopeptide (Examples 20A-20D)

Q: For `CC(O)CN1CCN(CC(=O)[O-])CCN(CC(=O)[O-])CCN(CC(=O)[O-])CC1.[Gd+3]` (centres unmarked) [ProHance®, reference compound], which tumor signal enhancement [1] is on record?
A: no signal enhancement was observed inside the tumors

Q: With “Ac-WQPC*PAESWTFC*WDPGGGK(DSPE-PG4-Glut)-NH2 (Ac-WQPCPAESWTFCWDPGGGK([Glutaryl-PG4-DSPE])-NH2; disulfide 4-12; reading uncertain; also: printed as Ac-WQPC*PAESWTFC*WDPGGGK(DSPE-PG4-Glut)-NH2) [Seq005-PL1]” as the compound, how does the Slope (fibrin; microvesicles with DPPE/DPPG envelope containing the lipopeptide (Examples 18A-18C), slope = average bound microvesicles per minute) read?
A: 7.2

Q: And the Slope (fibrin; microvesicles with DSPC/DPPG envelope containing the lipopeptide (Examples 17A-17B, molar ratio 47.5/47.5/5), slope = average bound microvesicles per minute)?
A: 8.54

Q: What about the Slope (fibrin; [2]) of the same compound?
A: 6.1

Q: Which results are given for “Ac-WQPCPAESWTFCWDPGSAGSK(DPPE-Pro9-Glut-Ttda-Dga)-NH2 (Ac-WQPCPAESWTFCWDPGSAGSK-NH2; disulfide 4-12 (inferred); not fully specified (residue 21)) [Seq005-PL4]”?
A: Slope (fibrin; microvesicles with DSPC/DSPA envelope, 0.26 μmoles lipopeptide (Examples 20E, 20G, 20H)): 6.4; Slope (fibrin; microvesicles with DSPC/DSPA envelope, 0.795 μmoles lipopeptide (Example 20F)): 8.0

Q: How did the Slope (fibrin; microvesicles with DSPC/DSPG envelope, Examples 19C-19E (0.45 μmoles lipopeptide, 0.45 μmoles DSPE-PEG1000)) turn out when “Ac-GWQPC*PWESWTFC*WDPGGGK(DSPE-PG4-Glut)-NH2 (Ac-GWQPCPWESWTFCWDPGGGK([Glutaryl-PG4-DSPE])-NH2; disulfide 5-13; reading uncertain; also: printed as Ac-GWQPC*PWESWTFC*WDPGGGK(DSPE-PG4-Glut)-NH2) [Seq016-PL1]” was run?
A: 11.5

Q: What about the Slope (fibrin; [2]) of the same compound?
A: 8.4
